Assay results from the DeepSol protein solubility set.

Test: soluble on expression in E. coli; label from the status in PepcDB or PDB records

| Sequence | soluble on expression in E. coli |
| --- | --- |
| MGSDKIHHHHHHMTSADNILAHASAMRQFSQFAGVAGLDLRRACPPDVYAFVEQAQDAEWLPATAHVDVLQAAAIASGRADLGVAFAMWCNIRGFGPVSLLWDHCTTVDEASRITRRYMHLESAAMRSSTDTDGHEAALRHILMVPARFGGSQFLQATLALQLRIIRMLLGEEWTPIRLELDHPAPPSYRYHQAVFRCPIEFEADRCALVFRKSDLHRPSLRGNANMVQYLERQLAHADSHWPGDLVQQIRYFVAANLTERKANLAHVSGLAGLSSQSLQRRLAERGTTFATILEEVRKQTADEYFRTARRPNLTELSHRLGYTDASAASRFLRQHMSTGARALMAQVRPGRGRPGSARALAAEA | not soluble |
| MLLREINRYCKEKATGKRIYAVPKLWIPGFFKKFDEKSGRCFVDPYELGAEITDWILNQSREWDYSQPLSFLKGEKTPDWIKRSVVYGSLPRTTAAYNHKGSGYYEENDVLGFREAGTFFKMMLLLPFVKSLGADAIYLLPVSRMSDLFKKGDAPSPYSVKNPMELDERYHDPLLEPFKVDEEFKAFVEACHILGIRVILDFIPRTAARDSDLIREHPDWFYWIKVEELADYTPPRAEELPFKVPDEDELEIIYNKENVKRHLKKFTLPPNLIDPQKWEKIKREEGNILELIVKEFGIITPPGFSDLINDPQPTWDDVTFLRLYLDHPEASKRFLDPNQPPYVLYDVIKASKFPGKEPNRELWEYLAGVIPHYQKKYGIDGARLDMGHALPKELLDLIIKNVKEYDPAFVMIAEELDMEKDKASKEAGYDVILGSSWYFAGRVEEIGKLPDIAEELVLPFLASVETPDTPRIATRKYASKMKKLAPFVTYFLPNSIPYVNTGQEIGEKQPMNLGLDTDPNLRKVLSPTDEFFGKLAFFDHYVLHWDSPDRGVLNFIKKLIKVRHEFLDFVLNGKFENLTTKDLVMYSYEKNGQKIVIAANVGKEPKEITGGRVWNGKWSDEEKVVLKPLEFALVVQE | soluble |
| MPLLSVIIPFGLSKERPYIEERVLQKAKFFQSDENIEFIFVEGYSSKDHELKNFIQANHHIYLKDMDQKAFSQGRCRNLGASYAHSNVLLFLDVDCYISLDNFEKILKLIQIKNISQNINALIVLPVVYLNKEANEKLKQYDDKFWDILIQEDLFTAKNTWVKFFAPSSTSSIVINKHQFLRLGGNDENFIGHGYEDFDLFARILKACVSFEKMPTNLSYDARNWNFFNFKGFRSWFSLLGYEACFYGIYIYHFYHIEPNQNAYMQNKDKNHQLFYKHLKNIKKHDLKPLQVFKAKGEKVLMLFKDQNYDFKDISVYVGEIIYKNISDFFIAKELKYELLLDFLQQEKITKIFLDASIKLQFNGIDYCDIFYFQKGILPHSWFFAKKLDLGYKQDLNLSEQKLYQVKEYFLTLKEDEKKVILDFLSQNNDDKYDLYKMLYYLINELYSFEHDGIFYQIIIDKEKMLIAQKHDKSFYPLRSFVYKPYLHELKSIRPFSFLMKILGLEYLGAMISHTKFYRLARKLFFNPKGFFEDFNYKIMKGKI | not soluble |
| GPGSMSTTAYALVAEEKQYPLQVGKNVVGRSSVPVEGVSFINLESPLAAISRMQAFVDIGANGDAWISDCNSTNGTFLSISPGPGIRLEANRYYQLSPGCRIVFGDVVCTFETLSEAPPTPEHPAHLLTSHSRPTRKTESLGVVDALADSTATTTPARHPSKQLNAHRSNVPYLDESGSLLREPAASRETVATTKKTPRRERREPTAPSPPLKRAKVESAAPSSFLKVKTAATAKATTPARALAARPHVCLTGMDSDERVAVTKRVRELKGRVVDDITKANLLVVATPPVRTPKFIAAVARGIPVVSVDYICNRRAELDDARHHIVGLKTDQHTYTAAELKKVIYRKDASPLLQGVSFNIAALSSKTKSVAAEIISSSGGEVVSTKKGGGTALTDAQLDKLYDSILRGKVPDVL | not soluble |
| MAIQLSKGQRIDLTKTNPGLTKAVIGLGWDTNKYSGGHDFDLDASAFLVDAHDNCVNDLDFVFYNNLEHPSGGVIHTGDNRTGEGDGDDEQIIVDFSKIPAHIEKIGITVTIHDAEARSQNFGQVSNAFVRVVDEETQNELLRFDLGEDFSIETAVVVCELYRHGGEWKFNAIGSGFSGGLAALCRNYGLQVLEHHHHHH | soluble |
| MKIYLMRHTSVLFNGNEHCYGFTDVDVRDTFEEEAAAACARLKGLDPEAVFTSPLQRAAKLAAFCGYPDAIRDDRLKEMNFGDWEGKPWEEILDTTDIEAFFRRYIDEPVSGGESQREQFERVRDFILEKKAAGYRSILIFCHGGVINCARTLVGQCTLESAFASLPPFGSLTELIL | not soluble |
| MSSVPQSKQELELAIHSVFPKLMADYRSIPAQMSRVCSIDGNIQGTQISVCDTVAYLIGWGKLVLKWYELTSQTLPVDFPDTGYKWNQLELLADRFHQEYHQWQYSDLLNEYELTMAKLLTLIASLSVQQLYGIAWYDKWTLGRMIQFNTYSPMKNMRTKVRRFKKDNALKLEHHHHHH | not soluble |
| MAHHHHHHMRGKRRQHRELYQAVLREQAAKAQEDAAQRRARLSWKEKLQLSFQEARESVTQLTSAKAGVMALLQHCTASHTAEVALEQGIDVKNVQMVFEKAAASNSVGVEEIVVGYIDAPGASHEEVMAFAEKLHKVCPVAKSMHIEWRQGSADSRRHEDGAVRRADGLHREMEQAASGVEWAESRTGSNLGGRSSAADAASTTSVESMPAGMPGSRRVQSSMSSRATRGGSLRDDEDKLHFPGVEKRDTAWDSTRHGSSRAKEPSTETSTASHRPPPPESASAATTQPGACSSDPASASPFPKP | soluble |
| ADCSSDLTSGISTKRIYYVAPNGNSSNNGSSFNAPMSFSAAMAAVNPGELILLKPGTYTIPYTQGKGNTITFNKSGKDGAPIYVAAANCGRAVFDFSFPDSQWVQASYGFYVTGDYWYFKGVEVTRAGYQGAYVIGSHNTFENTAFHHNRNTGLEINNGGSYNTVINSDAYRNYDPKKNGSMADGFGPKQKQGPGNRFVGCRAWENSDDGFDLFDSPQKVVIENSWAFRNGINYWNDSAFAGNGNGFKLGGNQAVGNHRITRSVAFGNVSKGFDQNNNAGGVTVINNTSYKNGINYGFGSNVQSGQKHYFRNNVSLSASVTVSNADAKSNSWDTGPAASASDFVSLDTSLATVSRDNDGTLPETSLFRLSANSKLINAGTKESNISYSGSAPDLGAFERN | soluble |
| MGSDKIHHHHHHARRNVLRKTWMNPENSEIIKDGRMKALFLVGMTDGDDSRMRKVVMEEARIYGDMVVVDLKDTYEELPFKSLTTLLYGTSKASEFKLIGKIDEDIMFFPDKILPLLEQNLIDPSSESIYGMLFAEGGYVYRDKEHRWFVPDSTYGCDMFPPYTGGLFYLVTQDAAKKILNATKHRIFIPIEDALINGILANDCKIPRIHLPEIYGDHHSLTDEDTRGVLAWHTGKNDQQFLDYFYRKLSESRLKKKILDEKNKHLFY | not soluble |
| GMQTTEIDLRLTEVSQQLTMVLVPGLRDSDDEHWQSHWERRFPHWQRIRQREWYQADLDRWVLAIRRELSVCTQPVILIGHSFGALAACHVVQQGQEGIAGVMLVAPAEPMRFEIDDRIQASPLSVPTLTFASHNDPLMSFTRAQYWAQAWDSELVDVGEAGHINAEAGFGPWEYGLKRLAEFSEILIPNR | soluble |
| AQELYKNENAPVHERVMDLISRLTVEEKISLLRATSPGIPRLGIDKYYHGNEALHGVVRPGRFTVFPQAIGLAATWNPELQKRVATVISDEARARWNELDQGREQKEQFSDVLTFWSPTVNMARDPRWGRTPETYGEDPFLSGIMGTAFVNGLQGDDPHYLKIVSTPKHFAANNEEHNRFVCNPQISEKQLREYYFPAFEMCVKEGKAASIMSAYNALNDVPCTLNPWLLQKVLRQDWGFQGYVVSDCGGPALLVNAHKYVKTKEAAATLSIKAGLDLECGDDVYDGPLLNAYKQYMVSDADIDSAAYHVLTARMKLGLFDS | not soluble |
| MKTLGYILMENGEKIDLEFFPEEAPKTVENFKKLAEQGFYDGVTFHRVIPGFVSQGGDPTGTGAGGPGYSIPCETDGNPHRHLVGSLSMAHAGRNTGGSQFFIVHEPQPHLDGVHTVFGKATSGIETVLNMRQGDVMKEVKVWEE | not soluble |
| LIIGVTGCPAGIAHTYLAAEALEKGAAALGFEIKVETNGSIGVKNSPSAEEIERAEAIVVACDKQVDMARFAGKRLIKTNVKAPIRDAQKLINEALRAPTY | not soluble |
| MDAAVIVPAYNEAESLARCLAPFESQPVELVVVVGGDDGTEQVARDTPFVDTVVRCDEGGAGIARNRGAAAATAPILLFTDADTVVPEDWVRLHLRHYADDEVIGVGGPARPLEDSLKHRVLFKLLSDYWYRVSWPLGFVQQPGFNCSFRADAFKAAGGFNEDIPFMEDTELSLRMKDYGRIVYDADSCVATSARREADEGYVSLFAKYVRGYANHYILRREFDADYFLEHHHHHH | not soluble |
| MAHHHHHHMKPTPLRGQPGLSRNGEGHNDRATSAASHLWARGARTQSPRRGQKESIATRTAVNNGGGPTHAATTRRSAQASRRTSTRYFKLPDAIAEKGEGAFSPTEPDCGATVLRHPASGRRHEEGEQGGSGIVCDVGVGAEKVAGGRLTTLRRTRGQPNKEASRTAFSMATDDVAPPTRLQYARMPRPMSQMNRTPLGVAVLGLQKIAARSETKRTRPLKRKRRINLPAAGPNGSDGLHSDLRG | soluble |
| MGSDKIHHHHHHMTGTANYVEFEPTRMGLYEASIRVKHECPYRRISERYPDLTIREWPLSDCQVLEITTETTPTDELLDEINEIGTVLYESADDNGYHVVTQSCLCSLEDSVIDRFEEHNCLYQSPTIYRQGWEHYTVVAFDSEDVRELLDSLRSDREIELLSKTSISETQIPHSMLAPANQLFEDITDRQLAALQLALESGYYEQPRKTSLRDLAERTAVARSTYEEHLRKAENKLLTNAGQFLRLVTATSTTNPLGVESGRRTEQTAD | not soluble |
| MAHHHHHHMEDVGGKANCQIEPERKEAVIDTSNWPLLLKNYDKLNVRSSHFTPLPMGNSPYSRNLEEYLKYGIINLDKPSNPSSHEVVSWIRKILRCEKTGHSGTLDPKVTGVLLVCLNRATRLVKSQQESGKEYVCVCKFHSKPKSLEEVKLVLNNFHGAIFQRPPLICAVKRQLRVRTIYDSKLLDFDDANNVCVFWVKCQAGTYIRTLCEHIGLLLGVGAHMQELRRVKSGNMTEYDNMCTLHDILDAQHVYDTTGDESYLRKIITPLEKLLINFPRIVIKDSAVNAICYGAKLTIPGVLRFDNNIDVNSEVVLMTTKGEAVALAIAQMTSSVIATVDHGVVSLTKRVIMDRDTYDVKWGYGTRSMEKKKLILAGLLDKYGKPNEKTPLSWIKSEGYVPKLVGDTAIYTLNTDDGNNNEVPENGKNVVGENNNPVGGSSAFNLSEGENKKKKDGEGAEENDNNAGEQSDSGVVKKKRKKN | not soluble |
| MGSDKIHHHHHHMYGNKIVFSGLENIKDCCKMKITRDELLIAAFKLFMSVNYEKASFAELGKMLGMSKAGIFKYYKNKQELFIAVVDKFWFSTQNPRNKFTETNGTFAEFIDEYVRGVQRTMDMLGDLIGAEREKVAQGKFTYHAQYFHFLFQLLQYDPDAKEKLRNLVEVDYAYWRAAIQRAIATGELREDVDVEDAVVMFRQVYMGLSFEMAFMGGLNTQRLAKHLHAVYSLLKR | not soluble |
| MKQWADDENLPMERYKNYQMIVPAFIIKDILDGKIPETFEDSKNIKMIEASWGEESYTKGHIPTSVHVNTDIIEPPPTWMLDNDDNLTKFALDYGLTKDDTVIVSSSTPMASYRLAVILRYIGVKDVRVLNGGTNSWLSAGYELEFISNPKLEHHHHHH | not soluble |
| MQSASDGFSKMIKTLLYITPDPCPECGGNLYAWRAKNKDGSDRCPPTCMECGYKARKKAEDLETEKMFNDSLKARAINYLKYSSLYTDKNLINCRFKTYKTVDTETKLAFEIANRATTEILLNKPIHMILSGKSGVGKSHLAMSTAWEVLEKSNYDKRCLFISYAELLEQLKFAMNDEQARKEITGSLMAEIKSADLVVLDDLGAELGVKQIDDRNKSTNFNNDTLNRIVEARQNKATIFTTNLTGKEMSQAYGERILSRIMSNSQGFVMKIEGTSDKRVAGILEHHHHHH | soluble |
